Values belong to the binder of their own block, whether it stands above or below them. No end group written: not given here. *: point of attachment. FITC = O=C1OC2(c3ccc(O)cc3Oc3cc(O)ccc32)c2ccc(NC(=S)*)cc21; Ahx = NCCCCCC(=O)O
B1: soluble αVβ6 headpiece (complex)
chain 1: FNLDVDSPAEYSGPEGSYFGFAVDFFVPSASSRMFLLVGAPKANTTQPGIVEGGQVLKCDWSSTRRCQPIEFDATGNRDYAKDDPLEFKSHQWFGASVRSKQDKILACAPLYHWRTEMKQEREPVGTCFLQDGTKTVEYAPCRSQDIDADGQGFCQGGFSIDFTKADRVLLGGPGSFYWQGQLISDQVAEIVSKYDPNVYSIKYNNQLATRTAQAIFDDSYLGYSVAVGDFNGDGIDDFVSGVPRAARTLGMVYIYDGKNMSSLYNFTGEQMAAYFGFSVAATDINGDDYADVFIGAPLFMDRGSDGKLQEVGQVSVSLQRASGDFQTTKLNGFEVFARFGSAIAPLGDLDQDGFNDIAIAAPYGGEDKKGIVYIFNGRSTGLNAVPSQILEGQWAARSCPPSFGYSMKGATDIDKNGYPDLIVGAFGVDRAILYRARPVITVNAGLEVYPSILNQDNKTCSLPGTALKVSCFNVRFCLKADGKGVLPRKLNFQVELLLDKLKQKGAIRRALFLYSRSPSHSKNMTISRGGLMQCEELIAYLRDESEFRDKLTPITIFMEYRLDYRTAADTTGLQPILNQFTPANISRQAHILLDTGGLEVLFQ
chain 2: HVQGGCALGGAETCEDCLLIGPQCAWCAQENFTHPSGVGERCDTPANLLAKGCQLNFIENPVSQVEILKNKPLSVGRQKNSSDIVQIAPQSLILKLRPGGAQTLQVHVRQTEDYPVDLYYLMDLSASMDDDLNTIKELGSRLSKEMSKLTSNFRLGFGSFVEKPVSPFVKTTPEEIANPCSSIPYFCLPTFGFKHILPLTNDAERFNEIVKNQKISANIDTPEGGFDAIMQAAVCKEKIGWRNDSLHLLVFVSDADSHFGMDSKLAGIVCPNDGLCHLDSKNEYSMSTVLEYPTIGQLIDKLVQNNVLLIFAVTQEQVHLYENYAKLIPGATVGLLQKDSGNILQLIISAYEELRSEVELEVLGDTEGLNLSFTAICNNGTLFQHQKKCSHMKVGDTASFSVTVNIPHCERRSRHIIIKPVGLGDALELLVSPECNCDCQKEVEVNSSKCHHGNGSFQCGVCACHPGHMGPRCESRGLQTLFQ

Legend:
Assay in all cases: fluorescence polarisation
[1] = target: soluble αVβ3 headpiece (human, UniProt P06756 31-624; P05106 27-498, M400C | Q267C)
[2] = target: B1
[3] = target: nonapeptide containing RGD from pro-TGF-β3

Sequence of soluble αVβ3 headpiece (P05106 27-498 Q293C, one chain of several): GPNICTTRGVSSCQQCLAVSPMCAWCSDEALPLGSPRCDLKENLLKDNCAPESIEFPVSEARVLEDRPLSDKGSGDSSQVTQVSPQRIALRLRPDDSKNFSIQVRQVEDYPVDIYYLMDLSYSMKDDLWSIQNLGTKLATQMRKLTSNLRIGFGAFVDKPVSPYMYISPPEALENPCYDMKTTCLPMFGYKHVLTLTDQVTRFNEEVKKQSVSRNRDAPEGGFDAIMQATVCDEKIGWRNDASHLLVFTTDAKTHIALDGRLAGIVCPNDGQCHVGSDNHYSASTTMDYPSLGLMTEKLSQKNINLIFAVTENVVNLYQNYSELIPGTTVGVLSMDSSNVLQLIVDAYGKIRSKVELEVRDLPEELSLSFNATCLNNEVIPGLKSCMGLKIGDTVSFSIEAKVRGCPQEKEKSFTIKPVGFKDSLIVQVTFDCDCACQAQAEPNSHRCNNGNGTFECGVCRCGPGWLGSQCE

binding result [1]: binds
Binder: {FITC-Ahx}-GRGDLGRL [FITC–pro-TGF-β3 peptide (FITC-aminohexanoic-GRGDLGRL)]

Kd [2]: 8.5 µM
Binder: YTSGDQKTI [homologous peptide from pro-TGF-β2 (SGD in place of RGD)]

Binder: B1
Kd [3]: 0.0085 µM
